Assay results taken from US20150258192A1, “COMPOSITIONS AND METHODS FOR PREVENTING OR TREATING CHRONIC LUNG ALLOGRAFT DYSFUNCTION (CLAD) AND IDIOPATHIC PULMONARY FIBROSIS (IPF)” (priority 2014, published 2015).
No end group written: not given here.

Key:
Assay in all cases: Kinase Profiling Assay
Format in all cases: biochemical
Settings in all cases: peptide 100 μM
PDK1(h) = target: T1, PDK1(h) (Homo sapiens, UniProt O15530)
T1 sequence (O15530 1-556): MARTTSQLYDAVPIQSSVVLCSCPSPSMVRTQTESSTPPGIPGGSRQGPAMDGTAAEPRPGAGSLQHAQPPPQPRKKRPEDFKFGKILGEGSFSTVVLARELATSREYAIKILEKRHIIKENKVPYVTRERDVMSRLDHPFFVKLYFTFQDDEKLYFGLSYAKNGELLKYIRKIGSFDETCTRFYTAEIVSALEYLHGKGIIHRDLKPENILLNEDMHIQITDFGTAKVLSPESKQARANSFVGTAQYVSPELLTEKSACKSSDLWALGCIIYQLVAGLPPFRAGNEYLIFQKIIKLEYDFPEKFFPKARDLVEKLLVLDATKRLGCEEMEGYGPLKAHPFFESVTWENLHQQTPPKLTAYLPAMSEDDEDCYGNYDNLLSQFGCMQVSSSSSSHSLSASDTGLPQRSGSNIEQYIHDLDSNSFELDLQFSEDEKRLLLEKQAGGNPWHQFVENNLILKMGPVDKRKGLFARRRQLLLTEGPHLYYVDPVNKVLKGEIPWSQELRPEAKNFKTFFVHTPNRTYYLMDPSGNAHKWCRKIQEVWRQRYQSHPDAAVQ
Outline: (§1)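 In this 266-kinase specificity panel, every measurement was duplicated. Transfer of labeled phosphate from ATP to a cationic substrate was quantified after the substrate adhered to an anionic filter membrane and was scintillation-counted, then related to a full-activity control.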

IR(h), activated = target: T2, IR(h), activated (Homo sapiens, UniProt P06213)
T2 construct: purchased Millipore
T2 sequence (P06213 1005-1310 limits assumed): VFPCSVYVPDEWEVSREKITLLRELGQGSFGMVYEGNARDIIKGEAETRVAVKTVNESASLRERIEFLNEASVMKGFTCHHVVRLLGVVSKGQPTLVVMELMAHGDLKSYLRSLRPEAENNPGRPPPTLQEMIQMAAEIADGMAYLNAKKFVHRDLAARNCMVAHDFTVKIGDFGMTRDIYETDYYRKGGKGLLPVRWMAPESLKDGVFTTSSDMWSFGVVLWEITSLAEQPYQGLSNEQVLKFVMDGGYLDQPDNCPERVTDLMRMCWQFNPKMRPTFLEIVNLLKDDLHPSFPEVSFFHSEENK
Outline: as §1

IKKα(h) = target: T3, IKKα(h) (Homo sapiens, UniProt O15111)
T3 construct: purchased Millipore
T3 sequence (O15111 1-745): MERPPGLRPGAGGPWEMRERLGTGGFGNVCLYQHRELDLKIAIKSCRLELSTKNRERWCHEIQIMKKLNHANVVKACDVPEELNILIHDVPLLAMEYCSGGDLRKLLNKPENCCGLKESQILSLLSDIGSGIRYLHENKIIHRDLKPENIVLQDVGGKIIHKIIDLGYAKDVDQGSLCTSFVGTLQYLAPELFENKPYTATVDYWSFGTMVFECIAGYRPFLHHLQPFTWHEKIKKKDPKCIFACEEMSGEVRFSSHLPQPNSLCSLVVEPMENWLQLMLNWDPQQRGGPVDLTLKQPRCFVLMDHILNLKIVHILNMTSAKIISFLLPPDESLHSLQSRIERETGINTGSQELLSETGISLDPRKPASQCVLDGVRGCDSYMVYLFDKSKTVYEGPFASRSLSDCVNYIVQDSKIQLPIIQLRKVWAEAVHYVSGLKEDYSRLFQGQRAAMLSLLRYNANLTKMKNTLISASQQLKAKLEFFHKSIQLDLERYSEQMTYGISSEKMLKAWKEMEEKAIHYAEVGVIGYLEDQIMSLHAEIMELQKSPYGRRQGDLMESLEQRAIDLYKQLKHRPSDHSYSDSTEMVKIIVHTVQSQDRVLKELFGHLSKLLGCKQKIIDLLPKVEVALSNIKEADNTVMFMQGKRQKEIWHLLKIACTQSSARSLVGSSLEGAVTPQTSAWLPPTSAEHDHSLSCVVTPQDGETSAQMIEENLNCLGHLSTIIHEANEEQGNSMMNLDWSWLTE
Outline: as §1

Pim-1(h) = Pim-1(h) (Homo sapiens, UniProt P11309)
Sequence of Pim-1(h) (P11309 whole entry): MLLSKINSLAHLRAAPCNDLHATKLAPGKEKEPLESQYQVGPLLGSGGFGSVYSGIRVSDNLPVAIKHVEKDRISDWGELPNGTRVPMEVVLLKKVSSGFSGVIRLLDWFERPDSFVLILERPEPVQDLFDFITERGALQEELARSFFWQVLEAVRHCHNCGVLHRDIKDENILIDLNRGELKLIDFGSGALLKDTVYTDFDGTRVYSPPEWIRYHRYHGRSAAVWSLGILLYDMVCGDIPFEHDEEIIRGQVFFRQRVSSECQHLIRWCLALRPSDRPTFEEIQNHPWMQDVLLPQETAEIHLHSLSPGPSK
Outline: as §1

SGK2(h) = target: T4, SGK2(h) (Homo sapiens, UniProt Q9HBY8)
T4 construct: purchased Millipore
T4 sequence (Q9HBY8 1-367): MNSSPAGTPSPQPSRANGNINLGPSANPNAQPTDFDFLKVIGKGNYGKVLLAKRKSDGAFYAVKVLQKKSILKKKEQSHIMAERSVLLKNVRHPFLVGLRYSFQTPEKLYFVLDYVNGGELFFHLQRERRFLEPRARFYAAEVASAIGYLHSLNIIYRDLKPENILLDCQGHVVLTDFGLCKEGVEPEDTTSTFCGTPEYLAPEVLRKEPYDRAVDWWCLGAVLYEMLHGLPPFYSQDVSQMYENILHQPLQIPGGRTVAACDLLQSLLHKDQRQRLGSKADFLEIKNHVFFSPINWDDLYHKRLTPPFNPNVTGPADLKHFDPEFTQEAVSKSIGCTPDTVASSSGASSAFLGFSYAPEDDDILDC
Outline: as §1

Rsk2(h) = Rsk2(h) (Homo sapiens, UniProt P51812)
Sequence of Rsk2(h) (P51812 whole entry): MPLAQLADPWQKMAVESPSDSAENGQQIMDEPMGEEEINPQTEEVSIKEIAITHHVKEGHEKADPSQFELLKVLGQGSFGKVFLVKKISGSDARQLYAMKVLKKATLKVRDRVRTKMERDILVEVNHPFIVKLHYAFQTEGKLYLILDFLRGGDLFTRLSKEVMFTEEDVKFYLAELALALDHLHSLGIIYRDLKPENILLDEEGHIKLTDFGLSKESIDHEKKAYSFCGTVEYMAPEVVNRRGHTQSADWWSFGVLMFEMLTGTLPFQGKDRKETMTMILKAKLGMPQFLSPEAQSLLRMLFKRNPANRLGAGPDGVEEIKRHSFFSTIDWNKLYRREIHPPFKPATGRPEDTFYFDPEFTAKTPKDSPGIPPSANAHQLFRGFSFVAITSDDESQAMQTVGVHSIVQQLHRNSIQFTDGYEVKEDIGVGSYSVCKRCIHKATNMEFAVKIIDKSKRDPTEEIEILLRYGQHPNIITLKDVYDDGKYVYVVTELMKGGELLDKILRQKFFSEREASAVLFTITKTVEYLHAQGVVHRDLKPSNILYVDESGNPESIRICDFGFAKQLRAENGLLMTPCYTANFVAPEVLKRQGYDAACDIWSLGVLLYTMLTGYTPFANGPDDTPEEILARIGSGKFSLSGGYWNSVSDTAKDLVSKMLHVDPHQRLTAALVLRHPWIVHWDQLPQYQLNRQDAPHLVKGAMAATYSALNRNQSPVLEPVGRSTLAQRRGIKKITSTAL
Outline: as §1

Fes(h) = Fes(h) (Homo sapiens, UniProt P07332)
Sequence of Fes(h) (P07332 whole entry): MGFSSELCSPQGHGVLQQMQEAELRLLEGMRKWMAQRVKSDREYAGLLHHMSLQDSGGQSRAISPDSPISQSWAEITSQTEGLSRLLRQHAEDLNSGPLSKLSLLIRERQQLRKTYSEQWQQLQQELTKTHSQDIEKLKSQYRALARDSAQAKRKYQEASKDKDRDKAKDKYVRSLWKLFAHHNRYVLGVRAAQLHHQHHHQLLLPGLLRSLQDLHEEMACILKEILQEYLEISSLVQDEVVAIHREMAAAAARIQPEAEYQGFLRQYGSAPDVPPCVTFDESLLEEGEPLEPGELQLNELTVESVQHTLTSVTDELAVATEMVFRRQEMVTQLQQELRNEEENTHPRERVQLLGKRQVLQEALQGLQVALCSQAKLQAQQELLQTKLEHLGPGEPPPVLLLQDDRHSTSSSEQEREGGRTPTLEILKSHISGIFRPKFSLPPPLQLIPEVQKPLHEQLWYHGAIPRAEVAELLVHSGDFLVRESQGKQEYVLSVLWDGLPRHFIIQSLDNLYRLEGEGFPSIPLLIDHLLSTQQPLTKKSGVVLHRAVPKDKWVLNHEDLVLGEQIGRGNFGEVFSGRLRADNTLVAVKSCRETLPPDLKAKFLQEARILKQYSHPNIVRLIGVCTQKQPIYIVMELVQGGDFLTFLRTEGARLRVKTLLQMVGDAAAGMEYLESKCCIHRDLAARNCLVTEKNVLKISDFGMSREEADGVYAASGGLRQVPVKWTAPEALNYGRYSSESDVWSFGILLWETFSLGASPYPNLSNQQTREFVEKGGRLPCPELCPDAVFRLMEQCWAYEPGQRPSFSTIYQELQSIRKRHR
Outline: as §1

BRK(h) = BRK(h) (Homo sapiens, UniProt Q13882)
Sequence of BRK(h) (Q13882 whole entry): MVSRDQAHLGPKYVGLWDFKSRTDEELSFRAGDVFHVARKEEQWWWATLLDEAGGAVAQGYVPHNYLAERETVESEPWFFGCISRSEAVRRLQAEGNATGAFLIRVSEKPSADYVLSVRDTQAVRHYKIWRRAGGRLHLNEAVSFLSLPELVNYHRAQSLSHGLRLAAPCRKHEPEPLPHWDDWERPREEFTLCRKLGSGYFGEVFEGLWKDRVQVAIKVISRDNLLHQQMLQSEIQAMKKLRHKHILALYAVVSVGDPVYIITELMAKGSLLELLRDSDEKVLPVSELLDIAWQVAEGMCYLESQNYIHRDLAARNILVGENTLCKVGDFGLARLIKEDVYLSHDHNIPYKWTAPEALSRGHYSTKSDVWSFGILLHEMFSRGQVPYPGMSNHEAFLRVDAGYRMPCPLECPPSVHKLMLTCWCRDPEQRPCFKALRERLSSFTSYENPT
Outline: as §1

TSSK2(h) = target: T5, TSSK2(h) (Homo sapiens, UniProt Q96PF2)
T5 sequence (Q96PF2 1-358): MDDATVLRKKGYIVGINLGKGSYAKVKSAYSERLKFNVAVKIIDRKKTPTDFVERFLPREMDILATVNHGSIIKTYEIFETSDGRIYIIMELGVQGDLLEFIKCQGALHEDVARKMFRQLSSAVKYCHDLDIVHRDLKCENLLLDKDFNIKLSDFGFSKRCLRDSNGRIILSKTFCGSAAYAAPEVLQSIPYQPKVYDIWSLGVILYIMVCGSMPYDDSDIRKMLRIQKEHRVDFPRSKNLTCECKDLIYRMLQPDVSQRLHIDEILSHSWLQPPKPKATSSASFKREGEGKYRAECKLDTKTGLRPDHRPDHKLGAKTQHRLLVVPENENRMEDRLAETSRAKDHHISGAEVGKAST
Outline: as §1

Sequence | % activity (PDK1(h)) [%] | % activity (IR(h), activated) [%] | % activity (IKKα(h)) [%] | % activity (Pim-1(h)) [%] | % activity (SGK2(h)) [%] | % activity (Rsk2(h)) [%] | % activity (Fes(h)) [%] | % activity (BRK(h)) [%] | % activity (TSSK2(h)) [%]
FAKLAARLYRKALARQLGVAA [MMI-0300] | 135 | 79 | 93 | 8 | 56 | 51 | 20 | 35 | 98
HRRIKAWLKKIKALARQLGVAA (Mammal) [MMI-0500] | 178 | 90 | 50 | 0 | -1 | 14 | 23 | 41 | 92
KAFAKLAARLYRKALARQLGVAA [MMI-0400] | 159 | 59 | 87 | 7 | 98 | 38 | 16 | 18 | 94
YARAAARQARAKALARQLGVAA [MMI-0100] | – | 127 | 108 | – | – | – | – | 70 | –
YARAAARQARAKALNRQLGVA (Mammal) [MMI-0200] | 143 | – | – | 18 | – | 101 | 74 | 127 | 91
